T1: hIL6R (human, UniProt P08887 20-357)
T1 construct: Purified from culture supernatant of a CHO line; whole entry named; also called human interleukin 6 receptor (purified antigen from hIL6R-CHO supernatant)
T1 sequence: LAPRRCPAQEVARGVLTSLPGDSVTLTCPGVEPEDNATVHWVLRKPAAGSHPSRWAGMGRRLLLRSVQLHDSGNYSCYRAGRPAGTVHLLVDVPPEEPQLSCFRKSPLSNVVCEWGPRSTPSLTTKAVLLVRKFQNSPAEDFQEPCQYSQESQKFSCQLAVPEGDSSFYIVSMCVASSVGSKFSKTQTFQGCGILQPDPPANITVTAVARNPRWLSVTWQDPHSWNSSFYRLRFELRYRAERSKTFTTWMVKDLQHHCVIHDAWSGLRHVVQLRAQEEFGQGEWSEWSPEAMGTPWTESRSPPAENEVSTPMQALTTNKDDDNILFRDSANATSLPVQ

B1: MRAH-G4T1/MRAL-k0 (antibody, human IgG4 S228P, kappa, V domains shown)
VH: QVQLQESGPGLVRPSQTLSLTCTVSGYSITSDHAWSWVRQPPGRGLEWIGYISYSGITTYNPSLKSRVTMLRDTSKNQFSLRLSSVTAADTAVYYCARSLARTTAMDYWGQGSLVTVSS
VL: DIQMTQSPSSLSASVGDRVTITCRASQDISSYLNWYQQKPGKAPKLLIYYTSRLHSGVPSRFSGSGSGTDFTFTISSLQPEDIATYYCQQGNTLPYTFGQGTKVEIKR
notes: Non-switch control antibody
B2: H0041-G4T1/L1088-lam1 (antibody, human IgG4 S228P, lambda, V domains shown)
VH: EVQLVESGGDLVKPGGGLRLSCAASGFTFSSYTMNWVRQAPGKGLEWVSSISSQSYHIYYADSVKGRFTISRDNAKNSLYLQMNSLRAEDTAVYYCARYGKLYSLNWVFDYWGQGTLVTVSS
VL: QSALTQPPSASGSPGQTVTISCTGTSTDVGDYAYVSWYQQHPGKAPKLMIYYVSKKPDGVPDRFSGSKSGNTASLTVSGLQAEDEADYFCSLRSPGPYPLFGGGTKLTVLG

How the values were obtained:
hIL6R [1] = biological target: T1, hIL6R; experiment: SPR 37C; ADP 10 uM
Experimental: (§1) Affinity analysis for hIL6R in the presence of each ATP concentration of 0, 1, 10, and 100 μM was performed on Biacore T200 using the antibodies described in Table 63. Measurements were performed at a flow rate of 10 μL/min, interaction time of 1 min, dissociation time of 1 min, and single cycle kinetics at 37° C. For the buffer, 20 mM ACES, 150 mM NaCl, 2 mM MgCl₂, and 0.05% Tween20, pH 7.4 containing different concentrations (0, 1, 10, and 100 μM) of ATP was used. The accessory Biacore Evaluation Software of Biacore T200 was used for analysis, and the 1:1 Langmuir binding model was used for the fitting model.
(§2) Antibodies with a response of 10 RU or less at the time of measurement were considered unanalyzable and are designated as N.D.

hIL6R [2] = biological target: T1, hIL6R; experiment: SPR 37C; AMP 10 uM
Experimental: as §1, §2

hIL6R [3] = biological target: T1, hIL6R; experiment: SPR 37C; ADP 100 uM
Experimental: as §1, §2

hIL6R [4] = biological target: T1, hIL6R; experiment: SPR 37C; AMP 100 uM
hIL6R [5] = biological target: T1, hIL6R; experiment: SPR 37C, mean; ATP 0 uM
Experimental: (§3) Measurements were performed at a flow rate of 10 μL/min, interaction time of 1 min, dissociation time of 1 min, and single cycle kinetics at 37° C. For the buffer, 20 mM ACES, 150 mM NaCl, 2 mM MgCl₂, and 0.05% Tween20, pH 7.4 containing different concentrations (0, 1, 10, and 100 μM) of ATP was used. The accessory Biacore Evaluation Software of Biacore T200 was used for analysis, and the 1:1 Langmuir binding model was used for the fitting model.

hIL6R [6] = biological target: T1, hIL6R; experiment: SPR 37C, mean; ATP 1 uM
Experimental: as §3

hIL6R [7] = biological target: T1, hIL6R; experiment: SPR 37C, mean; ATP 10 uM
Experimental: as §3

hIL6R [8] = biological target: T1, hIL6R; experiment: SPR 37C, mean; ATP 100 uM
Experimental: as §3

hIL6R [9] = biological target: T1, hIL6R; experiment: SPR 37C; ADP 10 uM; ADP 10 uM
Experimental: as §1, §2

hIL6R [10] = biological target: T1, hIL6R; experiment: SPR 37C; ADP 100 uM; ADP 100 uM
Experimental: as §1, §2

hIL6R [11] = biological target: T1, hIL6R; experiment: SPR 37C, mean; ATP 1 uM; ATP 1 uM; mean
Experimental: as §3

hIL6R [12] = biological target: T1, hIL6R; experiment: SPR 37C, mean; ATP 10 uM; ATP 10 uM; mean
Experimental: as §3

hIL6R [13] = biological target: T1, hIL6R; experiment: SPR 37C, mean; ATP 100 uM; ATP 100 uM; mean
Experimental: as §3

| Binder | Kd (hIL6R [1]) [nM] | Kd (hIL6R [2]) [nM] | Kd (hIL6R [3]) [nM] | Kd (hIL6R [4]) [nM] | Kd (hIL6R [5]) [nM] | Kd (hIL6R [6]) [nM] | Kd (hIL6R [7]) [nM] | Kd (hIL6R [8]) [nM] | Kd (hIL6R [9]) [nM] | Kd (hIL6R [10]) [nM] | Kd (hIL6R [11]) [nM] | Kd (hIL6R [12]) [nM] | Kd (hIL6R [13]) [nM] |
| --- | --- | --- | --- | --- | --- | --- | --- | --- | --- | --- | --- | --- | --- |
| B1 | 5.64 | 5.33 | 5.96 | 5.46 | 17 | 18.8 | 17.9 | 18 |  |  |  |  |  |
| B2 |  |  |  | 1810 |  |  |  |  | 10300 | 296 | 2380 | 320 | 48.3 |

Reference: patent US20210324099A1 (Chugai, published 2021)
